Experimental data as given in paper PMC5736104 (Nature, 2017).

Target: the molecule itself
Experiment: cryo-EM structure

B1: Hrd1, truncated after the RING finger domain (amino acids 1-407) (domain or fragment, S. cerevisiae, UniProt Q08109 1-407, looked up)
chain: MVPENRRKQLAIFVVVTYLLTFYCVYSATKTSVSFLQVTLKLNEGFNLMVLSIFILLNSTLLWQLLTKLLFGELRLIEHEHIFERLPFTIINTLFMSSLFHERYFFTVAFFGLLLLYLKVFHWILKDRLEALLQSINDSTTMKTLIFSRFSFNLVLLAVVDYQIITRCISSIYTNQKSDIESTSLYLIQVMEFTMLLIDLLNLFLQTCLNFWEFYRSQQSLSNENNHIVHGDPTDENTVESDQSQPVLNDDDDDDDDDRQFTGLEGKFMYEKAIDVFTRFLKTALHLSMLIPFRMPMMLLKDVVWDILALYQSGTSLWKIWRNNKQLDDTLVTVTVEQLQNSANDDNICIICMDELIHSPNQQTWKNKNKKPKRLPCGHILHLSCLKNWMERSQTCPICRLPVFDEK
  stoichiometry N: 2
